Assay results reported in the supplement of paper PMC12764529.
± gives the half width of the 95% confidence interval.

Key:
[1] = folding stability dG unfold (combined trypsin and chymotrypsin); higher = more stable
Procedure, shortened: (§1)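 Mini-proteins designed to be under 80 residues and free of cysteine were carried in a PA-tagged cDNA display construct and digested with trypsin and with chymotrypsin. Each protease was applied at 11 threefold-diluted concentrations, alongside a no-protease condition, before sequencing. K50 came from Bayesian fitting of the sequencing counts, and unfolding free energy was obtained by comparing it with a sequence-predicted unfolded-state K50 and a shared folded-state K50, for each protease separately or for both together. Designs were retained only if their AlphaFold2 dimer inter-PAE exceeded 15.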

[2] = folding stability dG unfold from chymotrypsin proteolysis; higher = more stable
Procedure, shortened: as §1

[3] = folding stability dG unfold from trypsin proteolysis; higher = more stable
Procedure, shortened: as §1

Sequence | folding stability dG unfold [1] [kcal/mol] | folding stability dG unfold [2] [kcal/mol] | folding stability dG unfold [3] [kcal/mol]
SAGGSSSSTSTRIDPTTGEWVTSTSSFPVPPAPPYIEVRLDVPPEEAEALREKLLAEHPDLPVRLEASAGGS [r8_437_JUSTAS] | 0.636 ± 0.072 | 0.74 ± 0.029 | 0.336 ± 0.023
SAGGSSSTPVSSSTFTTPDGVTVSVTTTLEPDASGNPYTVTTETFPDGTVTTTTYRNGETQTTTVASAGGSA [r2_182_JUSTAS] | 1.34 ± 0.088 | 1.33 ± 0.11 | 1.28 ± 0.041
SAGGSSSVGVDSSDPEKTKEAILKAYGTDAEPVFTTDPATGRLTITVPETGDVHTVTAGTRTETAASAGGSA [r2_205_JUSTAS] | 0.801 ± 0.085 | 0.224 ± 0.068 | 1.27 ± 0.042
SAGGSSVSSVTLLSSETYTEGEKTFKRTTYLVPLPDGTTAIVTTEETTPPENPPEVEVSSSTTPLPGSAGGS [r16_121_JUSTAS] | 1.63 ± 0.086 | 1.78 ± 0.093 | 1.25 ± 0.044
SAGGSTTVTIETYESEKFPNGSFKTSTKKIVITNTLSPDEELTLPNGKKIPASLSAEEIAEAILKSESAGGS [r16_440_JUSTAS] | 0.151 ± 0.098 | 0.522 ± 0.11 | -0.849 ± 0.23
SAGGSTVKTITLEFTRDPSTGAITEAEAEIERLKNDPNWEVTDPTITPLPDGTVKVPAKVKIPSNANLSAGG [r13_428_JUSTAS] | 0.075 ± 0.23 | 0.12 ± 0.27 | 0.116 ± 0.2
SAGGSTVTVTVRRRVRVEVNGELREFEVEVTVTVRLPPPPPVIELPPEQVTRIEWDEETQELRVEVDSAGGS [r8_28_TrROS_Hall] | 3.28 ± 0.21 | 3.33 ± 0.063 | 2.98 ± 0.21
SAGGSVEFEETITDPLKSLEEAKALAEEIEAELKAKGYKVTVTVTVVPPGSVTATITVTTDPAKGKKASAGG [r13_697_JUSTAS] | 0.82 ± 0.22 | 1.34 ± 0.072 | 0.822 ± 0.063
SAGGSVEKKLLEYDPATGNRLVEVTAKAKPEVVEELIAKGYDPSTISPLGDGTVRALLTIPPDEKLDSAGGS [r16_755_JUSTAS] | -0.248 ± 0.21 | -0.332 ± 0.25 | -0.295 ± 0.25
SAGGSVEVEPLPNGLLRVTTVFSESKTPILRKLTYKDENGKPLGTKLELLPEEVEVESVTELLPPELLSAGG [r13_848_JUSTAS] | 0.256 ± 0.079 | 0.606 ± 0.11 | -1.07 ± 0.29
SAGGSVITEEEKEKIKKEYPNLDIKLKALKPGETITYPNGTKVYGSPNGFLVEITNPDGTKTVIKESAGGSA [r2_166_JUSTAS] | 0.604 ± 0.11 | 0.498 ± 0.16 | 0.638 ± 0.026
SAGGSVIVKLPNGKILEVSPSELAGYKPGAAVKFPDGTAQVVNPETDEVIDIPIDSPEKIIEAIKKAASAGG [r13_962_TrMRF] | 0.163 ± 0.24 | 0.365 ± 0.077 | 0.0192 ± 0.1
SAGGSVVPLPLDETVELTFDGTTATFTALPDGTATATFTGPDSTARATFPPDGAVTVTVPGAGTTAASAGGS [r16_725_JUSTAS] | -0.404 ± 0.19 | -0.268 ± 0.19 | -1.18 ± 0.62
SAGGSVVTIVEVVPEDKKIVIKAPGNPITIPLENIKEIKLIPEKGYLEITINNTTIKVPLNNPNSISAGGSA [r2_48_JUSTAS] | 0.779 ± 0.071 | 1.09 ± 0.058 | 0.308 ± 0.051
SAGGSWLPPGMWIISISIKWEMREMTFSPNGQPEMEMRLEIDIQVIKIPPPPPPPKEDAKNPNGKWSAGGSA [r2_495_TrROS] | 1.66 ± 0.35 | 2.22 ± 0.3 | 0.946 ± 0.15
SAGGSYTVEELPPGGILRITFTVPKSRPAEVPLELKAPDGTPVDVESYSITPVGDTNVITYTIKVPLSAGGS [r16_499_JUSTAS] | 1.85 ± 0.11 | 1.81 ± 0.15 | 1.57 ± 0.049
SAGGTATLVIPRIYKGSPEEAARAVQEIADALAALGYDVEVDATVYPVGDYLVVTVTVTVTAPPDSPLASAG [r5_217_TrMRF] | 2.63 ± 0.15 | 2.82 ± 0.046 | 2.62 ± 0.099
SAGGTIIINFTWSDIKDILDYLKDNKDWKITIWMGNKPVEYPLDDLEEILQNIPMPPGQPFWIEITPSAGGS [r16_377_TrROS] | 4.36 ± 0.17 | 4.32 ± 0.14 | 3.38 ± 0.26
